Source: patent US20240287184A1 (GUANGDONG FAPON BIOPHARMA, published 2024)

Legend:
[1] = biological target: T1, recombinant human PD-1 expressed on the surface of CHO cells (CHO-hPD1) (human, UniProt Q15116 25-288); test: flow cytometry, blocking of PD-L2-hFc binding to CHO-hPD1, mode 1 (ligand first)
T1 construct: whole, on cells; also called CHO-PD1; hPD1-transfected CHO cells
Description: (§1) The ability of the anti-PD-1 mouse monoclonal antibody to block the binding of the ligand to a PD-1 stably expressed on the surface of transfected CHO cells was analyzed by a flow cytometer.
(§2) The cells were centrifuged at 300 g for 5 minutes, washed once with the buffer, added with a PE-labeled goat anti-human IgG fluorescent antibody (Biolegend), and incubated at 4° C. for 30 minutes. The cells were centrifuged and washed once, then resuspended in PBS, and subsequently analyzed by a CytoFlex flow cytometer to detect the quantity of the ligand protein bound to the cells, and calculate the IC₅₀ value of the PD-1 antibody in blocking the binding.

[2] = biological target: T1, recombinant human PD-1 expressed on the …; test: flow cytometry, blocking of PD-L2-hFc binding to CHO-hPD1, mode 2 (antibody first)
Description: as §1, §2

human ICOS-hFc [3] = biological target: T2, human ICOS-hFc (human, UniProt Q9Y6W8 21-140); test: ELISA, antigen coated at 1 µg/mL, antibody 10 µg/mL
T2 construct: Commercial protein; also called ICOS (ACRO); not shown: human Fc (hFc)
T2 sequence (looked up): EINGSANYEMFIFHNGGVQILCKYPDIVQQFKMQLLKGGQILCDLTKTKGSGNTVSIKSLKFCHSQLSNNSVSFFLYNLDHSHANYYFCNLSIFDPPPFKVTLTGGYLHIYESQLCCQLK
Excerpt: (§3) The anti-PD-1 mouse monoclonal antibody was allowed to bind with four different member proteins of CD28 family to verify the specificity of the antibody in binding to PD-1. […] A horse radish peroxidase (HRP)-coupled anti-mouse IgG(Sigma) was used as the secondary antibody. After developed with TMB and terminated, it was read for an OD450 value with a microplate reader.

human PD-1-hFc = biological target: T3, human PD-1-hFc (human, UniProt Q15116 25-167); test: as above
T3 construct: Commercial protein; also called PD-1 (ACRO); not shown: human Fc (hFc)
T3 sequence (Q15116 25-167 limits assumed): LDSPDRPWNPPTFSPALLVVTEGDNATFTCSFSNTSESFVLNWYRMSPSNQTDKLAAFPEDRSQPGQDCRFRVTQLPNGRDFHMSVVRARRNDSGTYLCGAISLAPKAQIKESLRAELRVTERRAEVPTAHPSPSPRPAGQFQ
Excerpt: as §3

human CTLA4-hFc [4] = biological target: T4, human CTLA4-hFc (human, UniProt P16410 37-162, limits assumed); test: as above
T4 construct: Commercial protein; also called CTLA-4 (ACRO); not shown: human Fc (hFc)
T4 sequence (P16410 37-162 limits assumed): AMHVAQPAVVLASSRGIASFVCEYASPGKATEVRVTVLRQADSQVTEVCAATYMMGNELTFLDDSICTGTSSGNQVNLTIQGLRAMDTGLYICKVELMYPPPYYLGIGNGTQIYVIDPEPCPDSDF
Excerpt: as §3

human CD28-hFc [5] = biological target: T5, human CD28-hFc (human, UniProt P10747 19-152); test: as above
T5 construct: Commercial protein; also called CD28 (ACRO); not shown: human Fc (hFc)
Excerpt: as §3

[6] = biological target: T6, mouse PD1 expressed on the surface of CHO cells (CHO-mousePD1) (mouse, UniProt Q02242 25-288); test: flow cytometry on CHO-mousePD1 cells
T6 construct: whole, on cells; also called CHO-mPD1
T6 sequence (looked up): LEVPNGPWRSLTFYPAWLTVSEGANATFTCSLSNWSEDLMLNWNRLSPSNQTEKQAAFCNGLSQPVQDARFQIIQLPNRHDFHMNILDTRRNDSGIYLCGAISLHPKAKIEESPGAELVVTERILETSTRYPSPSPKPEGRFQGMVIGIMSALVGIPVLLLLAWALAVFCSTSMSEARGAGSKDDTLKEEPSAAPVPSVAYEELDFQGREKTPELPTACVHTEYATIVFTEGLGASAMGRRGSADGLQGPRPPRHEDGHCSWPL
Description: (§4) In order to evaluate the binding of the anti-PD-1 mouse monoclonal antibody to the CHO-h PD1, 2×10⁵ CHO-hPD1 cells and an anti-PD-1 mouse monoclonal antibody diluted in concentration gradient (with an initial concentration of 10 μg/mL, and diluted in 3-fold gradient) were added into a 96-well plate, and incubated at 4° C. for 30 minutes. The cells were washed once with a buffer (PBS containing 3% BSA) and then added with a PE-labeled anti-mouse IgG (Fc) Ab (Biolegend) fluorescent secondary antibody, incubated at 4° C. for 30 minutes, then washed once with the buffer and subsequently resuspended in PBS. Thereafter, the cell suspension was subjected to flow cytometric analysis by CytoFlex (Beckman flow cytometer), and the quantity of the antibody bound to the cells was measured according to the mean fluorescence intensity (MFI) of the staining. The same method was used for evaluating the binding of the anti-PD-1 mouse monoclonal antibody to the CHO-cyno cells and the CHO-mousePD1 (sometimes abbreviated as “CHO-mPD1” in the application) cells.

[7] = biological target: T1, recombinant human PD-1 expressed on the …; test: flow cytometry, blocking of PD-L1-hFc binding to CHO-hPD1, mode 2 (antibody first)
Description: as §1, §2

human ICOS-hFc [8] = biological target: T2, human ICOS-hFc; test: ELISA, antigen coated at 1 µg/mL
Excerpt: (§5) A horse radish peroxidase (HRP)-coupled anti-human IgG (F) was used as the secondary antibody. After developed with TMB and terminated, it was read for an OD450 value with a microplate reader.

human CTLA4-hFc [9] = biological target: T4, human CTLA4-hFc; test: ELISA, antigen coated at 1 µg/mL
Excerpt: as §5

human CD28-hFc [10] = biological target: T5, human CD28-hFc; test: ELISA, antigen coated at 1 µg/mL
Excerpt: as §5

[11] = biological target: T7, monkey PD1 expressed on the surface of CHO cells (CHO-cynoPD1) (monkey); test: flow cytometry on CHO-cynoPD1 cells
T7 construct: whole, on cells
Description: as §4

[12] = biological target: T1, recombinant human PD-1 expressed on the …; test: flow cytometry, blocking of PD-L1-hFc binding to CHO-hPD1, mode 1 (ligand first)
Description: as §1, §2

[13] = biological target: T8, PD-1-his (ACRO) recombinant protein (UniProt Q15116 25-167); test: BLI (ForteBio Octet), PD-1-his loaded on sensor, antibody in solution
T8 construct: Commercial protein; not shown: his tag
T8 sequence (Q15116 25-167 limits assumed): as the sequence (Q15116 25-167 limits assumed) above
Description: Finally, analysis was conducted by utilizing a kinetic model.

[14] = biological target: T1, recombinant human PD-1 expressed on the …; test: flow cytometry on CHO-hPD1 cells
Description: as §4

[15] = biological target: T9, PD1 naturally expressed by activated human lymphocytes (PHA-activated PBMC) (human, UniProt Q15116 25-288); test: flow cytometry on PHA-activated human PBMC
T9 construct: whole, on cells; Also used as the target for the mixed lymphocyte reaction (human T cells)
T9 sequence (Q15116 25-288): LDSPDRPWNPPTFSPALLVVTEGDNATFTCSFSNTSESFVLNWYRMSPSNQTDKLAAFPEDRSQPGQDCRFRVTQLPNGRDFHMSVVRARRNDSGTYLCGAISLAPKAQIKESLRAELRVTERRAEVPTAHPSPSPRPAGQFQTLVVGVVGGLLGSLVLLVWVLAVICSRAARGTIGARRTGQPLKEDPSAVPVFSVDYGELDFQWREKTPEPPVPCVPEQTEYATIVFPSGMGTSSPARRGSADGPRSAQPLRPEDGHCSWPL
Description: After being obtained from fresh human peripheral blood by gradient centrifugation of lymphatic separation medium, the PBMCs were adjusted to the density of 1×10⁶ cells/mL and inoculated into T75, and meanwhile added with PHA-L (Sigma) at a final concentration of 1 μg/mL to stimulate the proliferation of lymphocytes. After being allowed to stand in an incubator at 37° C. and 5% CO₂ for 3 days, the cell suspension was taken out and centrifuged. […] The cells were washed once with the buffer, and added with a PE-labeled goat anti-human IgG fluorescent antibody (Biolegend), and incubated at 4° C. for 30 minutes.

T1 sequence (Q15116 25-288): as above

- IC50 [1]: 4.61 nM
- IC50 [2]: 3.73 nM
- OD450 (human ICOS-hFc [3]): 0.062 OD450
- OD450 (human PD-1-hFc): 2.12 OD450
- OD450 (human CTLA4-hFc [4]): 0.131 OD450
- OD450 (human CD28-hFc [5]): 0.0625 OD450
- IC50 [7]: 1.55 nM
- binding result (human ICOS-hFc [8]): no binding (tested: 10 µg/mL)
- binding result (human CTLA4-hFc [9]): no binding (tested: 10 µg/mL)
- binding result (human CD28-hFc [10]): no binding (tested: 10 µg/mL)
- EC50 [11]: 0.463 nM
- IC50 [12]: 2.57 nM
- Kd [13]: 0.0435 nM
- koff [13]: 3.18e-05 s⁻¹
- kon [13]: 732000 M⁻¹ s⁻¹
- EC50 [14]: 0.739 nM
- EC50 [15]: 0.109 nM
B1: anti-PD-1 mouse monoclonal antibody PD-1-112-C2 (antibody, V domains shown)
VH: QVQLQQPGAELVKPGASVKLSCKASGYTFTTYYMYWVKQRPGQGLEWIGGINPSNGGTNFNEKFKSKATLTVDKSSSTAYMQLSSLTSEDSAVYYCTRRDSNYDGGFDYWGQGTTLTVSS
VL: DIVLTQSPASLAVSLGQRATISCRASKSVSTSGYSYMHWYQQKPGQPPKLLIYLAYHLESGVPARFSGSGSGTDFTLNIHPVEEEDAATYYCQHSWELPITFGSGTKLEIKR
notes: Mouse monoclonal antibody from a hybridoma
- binding result [6]: no binding (tested: initial concentration of 10 µg/mL)
